Experiment: yeast display, Sf9 membrane polyspecificity reagent, FACS + sequencing; frameworks hold sequencing errors
In short: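 Nanobodies came from a synthetic yeast display library in Saccharomyces cerevisiae BJ5465, induced with galactose for 36–48 hours and stained for 1 hour at 4 °C with 10% biotinylated, detergent-solubilized Sf9 membrane reagent. Cells were enriched on streptavidin microbeads and then FACS-sorted, with low and high (top ~1%) gates set on anti-HA fluorescence for expression and streptavidin fluorescence for reagent binding. Each polyreactivity label reflects the gate a clone came from. Genes were amplified by colony PCR, sequenced by MiSeq 2 × 250 and filtered by CDR length.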

Sequence	polyreactivity (PSR sort gate)
QDQLGDSGGGLVQAGGSLSLSCAASGFIFYRYAMGWYRQAPGKERELVAAISGRGGSTYYADSVKGRFTISRDNAKNTVYLQMNSLKPEDTAVYYCATKPRSDSYGNYDYWGQGTQVTVSS	high polyreactivity
QDQLGESGGGLVQAGGSLRLSCAASGLTFYFYAMGWYRPAPGKEREFVATISFSGGSTYYADSVKGRFTISRDNAKNTVYIQMNSLKPEDTAVYYCNAESDYYWYPYNYWGQGTQVTVSS	low polyreactivity
QDQLVASGGGLVQAGGSSRLSCAASGRTFWSNAMGWYRQAPGKERELVAVITSSGGRTYYADSVKGRFTISRDNAKNTVYLQMNSLKPEDTAVYYCNVVCSPSLGVRTKYGYWGQGTHVTVSS	high polyreactivity
QDQLVDSGGGFVQAGGSLSLSCAASRRTFLYYAMGWYRQAPGKERELVAAIRRGSSTYYADSVKGRFTISRDNAKNNGFLQLISLIAADTAVYYCAAEFVNGPPYGAYDYWGQGTQVTVSS	high polyreactivity
QDQLVDSGGGIVQAGGILSYSCDPSGSNVRYNAMGWYRQAPGKERELVAGIRGSGGITYYADSVKGRFTISRDNAKNTVYLQMNSLKPEDSAVYYCAADVVVCSYQEDHSWGQGTQVTESS	low polyreactivity
QDQLVDSGGGLLQAGGSLRLSCAASGSMLSTYAMGWYRQATGKERELVASISSIAGSTYYADSVKGRFTISRDNAMNTVYLQLNILKPEDNAVYYCNKVYGGGSYDYWGQGTQVTVSS	low polyreactivity
QDQLVDSGGGLVQAGASLRISSATSGRILWEYAMGSYRQAPGKERQLVAAITISDGSTYYADSVKGRFTISRDNAKNTVYLQMNSLNPEDTEVYYCAADSYDYTPAYLFSYKYYYWGQGTQVTVSS	low polyreactivity
QDQLVDSGGGLVQAGGRLRLSCAASGLTLGSYAMGWSRQAPGQVRELVAAITRGGRSNYADSVKGRFSISRDNAKNTVYLQMYSLKPEDTAVYYCYADGPGYAAKYYWIYDYWGQGTQVTVSS	low polyreactivity
QDQLVDSGGGLVQAGGSLRLSCAASGFTLAYNTMGWYRQAPGKERELVASITSSGSSTYYADSEKGRFTITRDNGKYNVYLEMNSLKPEDTAVYYFNKVRPRKFWDYYYWGQGTQVTVSS	high polyreactivity
QDQLVDSGGGLVQAGGSLRLSCAASGSTFDANAMGWYRQAPGKERELVATISDGGSTNYADSVKGRFTISRDNAKNTVYLQMNSLKPEDTAVYYCAAVKLFLGLGYVYWGQGTQVTVSS	low polyreactivity
QDQLVDSGGGLVQAGGSLSLSCAASGRNFGLNAKGWYRQAPGKEREFVAAIDWNDASTFYADSVKGRFTISRDNAENTVYLQMNSLKPVETAVYYCAAPWWVTTGTKFDYWGQGTQVTVSS	high polyreactivity
QDQLVDSGGGLVQAGGSLSLSCAASGSILRTYAMGWYRQAPGKERELVAAISYRGVSTYYADSVKGRFTISRDNAKNTVYLQMNSLKPEDTAVYYCAADQLSDEYDYWGQGTQVTVSS	high polyreactivity
QDQLVDTVGGLVQAGGSLRLSCAASGRTFWFYAMGWYRQAPGKESELVASITTGGGTNYADSVKGRFTISRDNAKITVYLQMNSLKPEDTAVYYCAVKRYHFGSGVDWYGGSSYGYWGQGTQVTVSS	high polyreactivity
QDQLVEAGGGLVQAGGSLRLSCAASRRTFWKYARGWYIQAPGKERELVAAISSSGGNTYYADSVKGRFTISRDNAKNTVYLQMNRLKPEDTAVYYCAAPLPRGAYFYWGQGTQVTVSS	high polyreactivity
QDQLVESGGCLVQAGGSLRLSCASSGSTFGDYAMGWYRQAPGKERELVAAISVSGASTYYADSVKGRFTISRDNAKNTVYLQMNSLKPEDTAVYYCAASYDTIGDSWGQGTQVSVSS	low polyreactivity
QDQLVESGGGIVQAGGSLRLSCAASGSTFYENAMGWYRQAPGKERELVAAITWSGGRTYYADSVKGRFTISRDNAKNTVYLQMNSLKPEDTAVYYCAALYGVSEEDDYWGQGTQVTVSS	high polyreactivity
QDQLVESGGGKVQAGGSLRLRCAASGRIFQYYTMVWSRQAPGKERELVAGITRGDRTYADSVKGRFTISRDNAKNTVYLQMNSLKQEDTAVYYCNADVYPYTLALPAGMGYWGQGTQVTVSS	high polyreactivity
QDQLVESGGGLDQAGGRLRLSCAASGFTFGRNAMGWYRPAPGKERELDAASSWSGGSTYYADSVKGRFTISRDYAKNTVYVQMNSLKPEDTAVYYCNKRSRLGRGNRDYWGQGTQVTVSS	high polyreactivity
QDQLVESGGGLDQAGRSLRLSCAASGFTYRPYAMGWYRQEPGKERELVAAISSIGSTYYADSVKGRFTISRDNAKYTVYLPMNSLNPEDTAVYYCIADSYVRSTIFDHWGQGTQVTVSS	low polyreactivity
QDQLVESGGGLFQAGGSLRLSCAASGRTFYTYAMGRYRPAPRKERELVAAITSGDGTYYADSVKGRFTISRDNAKNTVYLQMNSLKPEDTAVYYCADTRTYQLYRWAPRYYYWGQGTQVTVSS	high polyreactivity
QDQLVESGGGLLQAGGILRLRCAASGSILNYYAMGWYIQAPGKERELVAAISSSDGRTYYAYSEKGRFTISRDNAKNTVYLQMNSLKPEDSAVYYCAAEGTYSYSSWYEYWGQGTQVTLSS	high polyreactivity
QDQLVESGGGLLQAGGTLRLSCAASGPTFRAKAMGWNRQSPGKERELVAAITWDGGSRYYADSVKGRFTISRDYAKNTVYLQMNSLKPEYTAVYYCNTYPYLWGQGTLVTVSS	low polyreactivity

Sequence	polyreactivity (PSR sort gate)
QDQLVESGGGLVHAGGSLRLSCAASGSTFDRYALGWYRQAPVKERELVATITRSGSTNYADSVKGRFTISRDNAKNTVYLQMNSLKTEDTAVYYCAAYDRITRYDYWGQGTQVTVSS	high polyreactivity
QDQLVESGGGLVQAGASLRLSCPASGFLFESNAMGWYRQAPGKERELVAAITKRGGSTYYADSVKGRFTISRDNAKNTVYLQMKSLKPEDTAVYYCARYSSRYSSGYDYWGQGTQVTVSS	high polyreactivity
QDQLVESGGGLVQAGCSLRLSCAASGRTFKDYAMGWYRQAPGKERELVAAITYRDRTYYADSVKGRFTISRDNAKNTVYLQMNSLNTEDTAVYYCNAEGFSGMDYWGKGTQVTVSS	low polyreactivity
QDQLVESGGGLVQAGGNLRLSCAASGRIYRYYAMGWYRQAPGKERELVATITLNTVSTYYADSVKGRFTISRDNAKNTVYVQKNSRTPEDTAVYYCAAGAVRFGAGYSRYWEDDYWGQGTQVTVSS	high polyreactivity
QDQLVESGGGLVQAGGRLRLSCAASGSTFLRYAMGWYRQAPGKERELVAAINLSGDRTYYADSVKGRFTISRDKAKNTFYLQMHSLKPEDTAVYYCAARWWGPSYDAYDYWGQGTQVTVSS	low polyreactivity
QDQLVESGGGLVQAGGRLRLSCAASGSTVGVYAMGWYRQAPGKERELVAAISYTGGSSYYADSVKGRFTISRDNAKNTVYLQMNSLKPEDTAVYYCAVEVGYTDSPYSYDYWGQGTQVTVSS	low polyreactivity
QDQLVESGGGLVQAGGRLRLTCAASGNTFSGNAMGWYRQAPGKERELVAAISGSGASTYYADSVKGRFTISRDNAKNTVYLQMNSLKPEDTAVYYCDADKPGIFSRFDYWGQGTQVTVSS	low polyreactivity
QDQLVESGGGLVQAGGRRRLSCAASGSIFGGYSMGWYRQAPGKERELVAAISRRGGNTYYADSVKGRFTISGDNAKNTVYLQMNSLKPDDTAVYYCAVRWPSARIPVKLDYWVQGTQVTVSS	high polyreactivity
QDQLVESGGGLVQAGGSLLLSCAASGLTVGRYAMGWYRQAPGKERELVAVINGSGGNTYYADSVKGRFTISRDHATNTVYLQMHSLKPEDTAVYYCNVDDWGQGTQVTVSS	low polyreactivity
QDQLVESGGGLVQAGGSLRISCAASGSTFFGYAMGWYRQAPGKERELVATISSGDSTNYADSVKGRFTFSRDNAKNTVYLQMNSLKPEDTAVFYCAAQGGDGVLALYYYWGQGTQVTVSS	low polyreactivity
QDQLVESGGGLVQAGGSLRLICAASGLTFKVYAMGWYRQAPGKERELVAAISWSGGSTYYADSVKGRFTISRDNAKNTVYLQMNSLKPEDTAVYYCAVEASYYVVFFPYEYWGQGTQVTVSS	low polyreactivity
QDQLVESGGGLVQAGGSLRLICAASGRIFNVYAMGWYRQAPGKERELVAAISWRGGNTYYADSVKGRFTISRDNAKNTVYLQMNSLKPEDTAVYYCAAVYRGYDYWGQGTQVTVSS	high polyreactivity
QDQLVESGGGLVQAGGSLRLICAASGSTFVQYVMGWYRPAPGKERELVAAITRSCGSTYYADSVKGRFTISRDNAKNTVYLQMNSMKPEDSAVYYCAAYALRIQYDYWGQGTQVTVSS	high polyreactivity
QDQLVESGGGLVQAGGSLRLRCAASGRTFYMYAMGWYRQAPGKERELDAVISPSGGPTYYADSVKGRFTISRDNAKNPGSLQMNSMKPEDTAVFYCATDYAYSPYRYWTRYDYWGLGTQVTVSS	high polyreactivity
QDQLVESGGGLVQAGGSLRLRCAASRFYTMGWYRQAPGKERELVAAISWSGGDTYYADSVKGRFTISRDNAKNTVYLQMNSLKPEDTAVYYCAKKTIGSYVHEPYYYWGQGTQVTVSS	low polyreactivity
QDQLVESGGGLVQAGGSLRLSCAASGFIFGLYAMGWYRQAPGKERELVAAISSGGSTYYADSVKGRFTISRDNAKNTVYLQMNSLKPEDTAVYYCAAYYVYSEYDYWGQGTQVTVSS	high polyreactivity
QDQLVESGGGLVQAGGSLRLSCAASGFIFKYYAMGWYRQAPGKVRELVAVISISGGSTYYADSVKGRLTISRDNAKNTVYLQMNSLKPEDTAVYYCNVYWRRTSTLAFDYCGQGTQVTVSS	high polyreactivity
QDQLVESGGGLVQAGGSLRLSCAASGFIFRWYAMGWYRQAPGKERELVAAISRSGDSTYYADSVKGRFTISRDNAKNTVYLQMNSLIPEDTAVYYCAADDRYYTYGYDYWGQGTQVTVSS	low polyreactivity
QDQLVESGGGLVQAGGSLRLSCAASGFIFYYNAMAWYRHAPGKERELVAAISYVGGSTYYADSVKGRFTISRDNAKNTVYLQLNSLKPEDTAFYYCAARVYWWIASLAGNYWGQGTQVSVSS	low polyreactivity
QDQLVESGGGLVQAGGSLRLSCAASGFIIIGNAMGWYRQAPGKERELVAAISRRGGSTYYADSVKGRFTISRDHAKNTVYLQMNSLKPEDTALYYCNALTRRQKGGEGGGYWGQGTQVTVSS	high polyreactivity
QDQLVESGGGLVQAGGSLRLSCAASGFIIQCNAMGWYRQAPGKERELVAAISSSVSTYYADSVKGRFTISRDNAKNTVYLQMNSLKPEDTAVYYCNAGFPLSLWLGDYWGQGTQVTVSS	low polyreactivity
